Measurements: patent US7125850B2, “Methods of identifying inhibitors of GADD45 polypeptide activity, and inhibitors of such activity” (The United States of America as represented by the …, priority 1999, dated 2006)

Columns and labels:
RKO cells = test: Flow cytometry cell cycle analysis of RKO cells after base-damaging agent; format: cell-based, human; conditions: parental RKO cells, 25 μg/ml
Protocol: Using flow cytometry analysis, cell cycle distributions of unsynchronized cell populations were performed (for flow cytometry analysis, cells were harvested with 3.5 mM EDTA-PBS buffer, fixed with 70% ethanol for at least 1 hr at 4° C., treated with 20 μg/ml RNase A for 30 min, stained with 60 μg/ml of propidium iodide (PI) for DNA content, and analyzed for cell cycle status with a FACScan cell sorter (Becton Dickinson). At least 10,000 cells were collected. The cell cycle profiles were calculated using the CellQuest and ModFit Lt software. Experiments were repeated at least twice.) The parental human RKO colon carcinoma cells and three isogenic RKO-derived clones stably expressing antisense GADD45 mRNA (discussed above) were analyzed.
Cells were treated with base-damaging agents: either 6.3 Gy of γ-radiation; 5 J/m^2 of UV; or, 25 μg/ml of the base-damaging alkylating agent MMS. These doses for MMS and UV radiation were selected because they were not toxic to these cells in a short-term growth assay. […] The cell cycle status of the cells was then analyzed and quantitated by flow cytometric analysis profile (as described above). […] IR caused a significant accumulation in G2/M with concomitant reductions in G1 and S in all four cell lines.

Cdc2 = Cdc2 (Homo sapiens, UniProt P06493); test: Co-immunoprecipitation of Myc-tagged GADD45 with Cdc2 antibody in transfected RKO cells; format: cell-based; design: endogenous in cells; host or cells: RKO (human colon carcinoma)
Description: In order to determine if GADD45 associates with Cdc2 in vivo, RKO cells were transfected with Myc-epitope-tagged expression vectors. To construct the Myc-tag-GADD45 expression vector, internal GADD45 primers were designed to contain an in-frame 5′ NdeI site and were used to amplify the desired regions from a human GADD45 cDNA construct. PCR products were cloned into the pcrII vector using the TA Kit (Invitrogen, Carlsbad, Calif.) and sequenced prior to subcloning into XhoI/XbaI cut pCS2MT. This allowed expression of the GADD45 constructs tagged with 6 copies of the Myc epitope recognized by the monoclonal 9E10 antibody at the amino-terminus (Rupp (1994) Genes Dev. 8:1311–1323; Turner (1994) Genes Dev. 8:1434–1447).
For mammalian cell transfection, 10^6 RKO cells were seeded onto 100 mm plates the day before transfection. […]
Lysates from cells expressing Myc-tag-GADD45 fusion protein or unfused Myc-tag were immunoprecipitated with antibodies to c-myc and Cdc2 (both from Santa Cruz Biotech.). […] Following immunoblot analysis, the Myc-tagged GADD45 protein was detected in both the cell lysate and after immunoprecipitation with anti-Myc antibody. […] After immunoprecipitation with Cdc2 antibody, Myc-tagged GADD45 was also detected. No GADD45 was detected with (i.e., was co-immunoprecipitated by) the control antibodies. […]

cellular Cdc2 = biological target: T1, cellular Cdc2 (Homo sapiens, UniProt P06493); test: GST pull-down from RKO cell lysate, immunoblot for Cdc2; format: binding; conditions: 100 ng protein, 1 mg RKO cellular protein
T1 construct: GST-GADD45 fusion protein were incubated with one mg of RKO cellular protein; endogenous in cells; host or cells: RKO (human colon carcinoma)
Description: For these experiments, a recombinant glutathione-S-transferase (GST)/GADD45 fusion protein was constructed. The GADD45 insert was PCR amplified from pHul45B2 using the following primers: (SEQ ID NO:3) 5′[…] 3′ and (SEQ ID NO:4) 5′[…] 3′. Products were cloned into a pcrII vector using the TA cloning kit (Invitrogen, San Diego, Calif.). A representative clone was confirmed by sequencing. The selected insert was removed by XhoI and NotI digestion, gel purified using the Wizard DNA Purification Kit (Promega, Madison, Wis.), and ligated into the XhoI/ NotI digested pGEX4T vector (Pharmacia, Piscataway, N.J.). GST-GADD45 fusion protein induction was prepared from freshly transformed BL21 bacterial cells (Novagen). 150 ml of overnight culture was diluted into 1L of LB with ampicillin and grown at 37° C. to late growth phase (OD600 was approximately 0.8). […]
To detect binding of cellular Cdc2 to GST-tagged GADD45, 100 ng of GST or GST-GADD45 fusion protein were incubated with one mg of RKO cellular protein for 4 hr at […]. […] Antibody was detected by a chemiluminescence system in accordance with the instructions of the manufacturer (Amersham, Buckinghamshire, England)
(§1) GST-GADD45 fusion protein or GST alone, which were linked to Sepharose beads, were incubated with cellular lysates, isolated, and analyzed by immunoblotting, as described above.

cyclin B1 = biological target: T2, cyclin B1 (Homo sapiens, UniProt P14635); test: GST pull-down from RKO cell lysate, immunoblot for cyclin B1; format: binding; conditions: 100 ng protein, 1 mg RKO cellular protein
T2 construct: endogenous in cells; host or cells: RKO (human colon carcinoma)
Protocol: To detect binding of cellular Cdc2 to GST-tagged GADD45, 100 ng of GST or GST-GADD45 fusion protein were incubated with one mg of RKO cellular protein for 4 hr at […]. Complexes were then washed three times with lysis buffer and loaded onto a 12% SDS-PAGE gel. Following electrophoresis, the proteins were electrophoretically transferred to Immobin membranes (Millipore, Bedford, Mass.). The membranes were blocked for 30 min in 5% nonfat milk and then incubated with anti-Cdc2 (Santa Cruz Biotechnology, Santa Cruz, Calif.) and anti-cyclin B1 (Pharmingen, San Diego, Calif.) monoclonal mouse antibodies. Antibody was detected by a chemiluminescence system in accordance with the instructions of the manufacturer (Amersham, Buckinghamshire, England)
as §1

Cdk2 = biological target: T3, Cdk2 (Homo sapiens, UniProt P24941); test: GST pull-down from RKO cell lysate, immunoblot for Cdk2; format: binding
T3 construct: GST-GADD45 fusion protein were incubated with one mg of RKO cellular protein; endogenous in cells; host or cells: RKO (human colon carcinoma)

T2 sequence (P14635 whole entry): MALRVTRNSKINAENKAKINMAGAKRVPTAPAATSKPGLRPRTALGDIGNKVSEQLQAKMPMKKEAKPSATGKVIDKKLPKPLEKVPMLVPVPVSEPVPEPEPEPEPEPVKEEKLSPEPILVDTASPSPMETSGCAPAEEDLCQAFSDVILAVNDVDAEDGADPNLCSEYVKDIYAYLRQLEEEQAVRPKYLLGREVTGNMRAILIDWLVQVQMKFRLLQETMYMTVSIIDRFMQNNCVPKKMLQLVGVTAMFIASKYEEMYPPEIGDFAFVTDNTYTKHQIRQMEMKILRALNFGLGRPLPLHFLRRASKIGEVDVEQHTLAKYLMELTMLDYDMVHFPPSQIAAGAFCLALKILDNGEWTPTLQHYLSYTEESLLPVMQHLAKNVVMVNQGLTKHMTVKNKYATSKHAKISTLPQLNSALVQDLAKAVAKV
Cdc2, sequence (P06493 whole entry): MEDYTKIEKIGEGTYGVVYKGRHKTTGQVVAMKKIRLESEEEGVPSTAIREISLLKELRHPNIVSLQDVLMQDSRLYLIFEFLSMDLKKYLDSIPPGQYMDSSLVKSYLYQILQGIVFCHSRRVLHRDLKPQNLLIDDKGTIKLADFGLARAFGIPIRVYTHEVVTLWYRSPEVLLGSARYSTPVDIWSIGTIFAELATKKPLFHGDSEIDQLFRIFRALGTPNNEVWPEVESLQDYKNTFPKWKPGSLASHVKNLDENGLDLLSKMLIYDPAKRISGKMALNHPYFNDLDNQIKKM
T1 sequence (P06493 whole entry, the tested form may be a part): as the sequence (P06493 whole entry) above

COS(C)(=O)=O [MMS, methyl methanesulfonate]
cell cycle accumulation (RKO cells): accumulated in S and G2/M

B1: Myc-tagged GADD45: GADD45 tagged with 6 copies of the Myc epitope, expressed in RKO cells (protein)
chain: MTLEEFSAGEQKTERMDKVGDALEEVLSKALSQRTITVGVYEAAKLLNVDPDNVVLCLLAADEDDDRDVALQIHFTLIQAFCCENDINILRVSNPGRLAELLLLETDAGPAASEGAEQPPDLHCVLVTNPHSSQWKDPALSQLICFCRESRYMDQWVPVINLPER
modifications: left off: small tags and cut ends
detection after immunoprecipitation with Cdc2 antibody (Cdc2): also detected

B2: GST-GADD45: recombinant glutathione-S-transferase (GST)/GADD45 fusion protein on Sepharose beads (protein)
chain: TLEEFSAGEQKTERMDKVGDALEEVLSKALSQRTITVGVYEAAKLLNVDPDNVVLCLLAADEDDDRDVALQIHFTLIQAFCCENDINILRVSNPGRLAELLLLETDAGPAASEGAEQPPDLHCVLVTNPHSSQWKDPALSQLICFCRESRYMDQWVPVINLPER
modifications: left off: a dimerising Fc or GST
notes: recombinant glutathione-S-transferase (GST)/GADD45 fusion protein on Sepharose beads
association with cellular Cdc2 (cellular Cdc2): found to associate | association with cyclin B1 (cyclin B1): did not associate | association with Cdk2 (Cdk2): No association
